Experimental data taken from patent CN108753792A (UNIV SUN YAT SEN, dated 2018).

Key:
MBP [1] = molecular target: T1, MBP (UniProt P0AEX9 27-396 = MBP); test: Native-PAGE mobility shift, Coomassie staining (Fig. 6C)
MBP [2] = molecular target: T1, MBP; test: Native-PAGE mobility shift, Coomassie staining (Fig. 6D)

B1: 绿色荧光蛋白(GFP)纳米抗体 A12 (VHH)
VHH: DVQLQESGGGLVQAGGSLRLSCAASGGTFSILSLGWFRQAPGKEREFVAAISRSEGSTDYADFVKGRFMISRENAKNTAYLQMNSLKPEDTAVYFCAASYARRLSTTASRVLYWGQGTQVTVSS
modifications: biotinylated (Sulfo-NHS-LC-biotin kit) in the ELISA of Example 5; not biotinylated in the Native-PAGE of Example 6
notes: Printed molecular weight 15.7 KDa; also called A12抗体; pADL-10b-A12-His; not shown: C-terminal 6xHis tag from vector pADL-10b-His
MBP [1]
  binding result: no binding (tested: 3μg MBP和3μg纯化的纳米抗体)

B2: 绿色荧光蛋白(GFP)纳米抗体 E6 (VHH)
VHH: DVQLQESGGGLVQAGGSLRLSCAASGRFVSSYIMGWFRQAPGKEREAVASILRSVDATYYADSVKGRFTISRDNDKNTVYLQMNSLKPEDTAVYYCATRARGYFGSFGRLWPDDRQYDYWGQGTQVTVSS
modifications: biotinylated (Sulfo-NHS-LC-biotin kit) in the ELISA of Example 5; not biotinylated in the Native-PAGE of Example 6
notes: Printed molecular weight 18.4 KDa; also called E6抗体; pBAD24-Flag-E6-His; not shown: Flag tag from vector pBAD24-Flag-His; C-terminal 6xHis tag from vector pBAD24-Flag-His
MBP [2]
  binding result: no binding (tested: 3μg MBP和3μg纯化的纳米抗体)

B3: 绿色荧光蛋白(GFP)纳米抗体 D5 (VHH)
VHH: DVQLQESGGGLVQPGGSLRLSCAASGIIFSIYDMGWYRQAPGKQRELVALITIHRSTNYEDSVKGRFTISRDNAKNTVYLQMNSLKPEDTAVYYCNANGVNYQYWGQGTQVTVSS
modifications: biotinylated (Sulfo-NHS-LC-biotin kit) in the ELISA of Example 5; not biotinylated in the Native-PAGE of Example 6
notes: Printed molecular weight 16.6 KDa; also called D5抗体; D5-biotin; not shown: Flag tag from vector pBAD24-Flag-His; C-terminal 6xHis tag from vector pBAD24-Flag-His
MBP [2]
  binding result: no binding (tested: 3μg MBP和3μg纯化的纳米抗体)
